From patent publication US9228015B2, “Nogo receptor antagonists and methods of increasing neurite outgrowth” (Biogen Idec MA Inc., priority 2006, dated 2016) come the findings set out here.

“Also recorded” adds a separate entry of the source.

In test [1] the target is T1, panel of Nogo receptor-1 polypeptides (sNogoR310-Fc, sNogoR344-Fc, p-617, p-618, p-4, p-5) (Rattus norvegicus, UniProt Q99M75).
T1 construct: made in house
The experiment in a line: Antibody specificity ELISA with a panel of Nogo receptor-1 polypeptides. The class given is binding. The source says:
To determine the specificity of the monoclonal and Fab-phage antibodies produced in Examples 1 and 2, we performed an ELISA using a panel of Nogo receptor-1 polypeptides. The panel consisted of sNogoR310-Fc (a fusion protein comprising amino acids 26-310 of rat Nogo receptor-1 and a rat Fc fragment), sNogoR344-Fc (see supra), polypeptide p-617 (SEQ ID NO: 1), polypeptide p-618 (a 19-amino acid polypeptide from the LRR7 region of rat Nogo receptor-1; FIG. 2; SEQ ID NO: 11) and polypeptides p-4 and p-5 (polypeptides from the LRR5 and LRRCT regions of Nogo receptor-1, respectively). Ovalbumin and BSA were used as controls.

The next test has as its target T2, human NgR2 (Homo sapiens, UniProt Q86UN3).
T2 sequence (Q86UN3 47-390): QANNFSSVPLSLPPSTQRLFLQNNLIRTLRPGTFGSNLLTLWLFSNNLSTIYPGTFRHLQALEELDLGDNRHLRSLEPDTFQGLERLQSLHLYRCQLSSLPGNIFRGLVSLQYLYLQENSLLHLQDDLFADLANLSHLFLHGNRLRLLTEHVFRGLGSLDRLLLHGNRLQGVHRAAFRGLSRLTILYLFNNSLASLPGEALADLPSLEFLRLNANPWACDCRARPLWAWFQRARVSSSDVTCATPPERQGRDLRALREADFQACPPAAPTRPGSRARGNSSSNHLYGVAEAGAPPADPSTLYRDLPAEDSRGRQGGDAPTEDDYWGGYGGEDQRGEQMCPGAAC
The experiment in a line: Antibody binding specificity: human Nogo receptor-2.

Test [2] has as its target T3, Nogo66 binding to sNogoR344-Fc (rat Nogo receptor-1 residues 26-344) (Rattus norvegicus, UniProt Q99M75, A303T/C287S/C43R/E284G/T53A).
T3 construct: amino acid residues 26-344 of rat Nogo receptor-1; made in house; CHO (DG44) is described only for sNogoR310-Fc
T3 sequence (Q99M75 26-344 C43R/T53A/E284G/C287S/A303T): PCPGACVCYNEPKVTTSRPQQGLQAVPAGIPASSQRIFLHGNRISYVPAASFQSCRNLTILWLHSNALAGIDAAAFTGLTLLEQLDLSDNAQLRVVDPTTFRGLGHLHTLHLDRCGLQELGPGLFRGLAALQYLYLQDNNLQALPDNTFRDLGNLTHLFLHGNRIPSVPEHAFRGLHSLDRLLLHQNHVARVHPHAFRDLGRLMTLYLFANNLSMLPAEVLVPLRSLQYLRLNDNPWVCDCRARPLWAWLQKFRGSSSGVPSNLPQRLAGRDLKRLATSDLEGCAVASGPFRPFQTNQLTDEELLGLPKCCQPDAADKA
Kind of test: SPA bead assay: 125I-Nogo66 binding to immobilized sNogoR344-Fc, inhibition by mAb. The following applies: 125I-Nogo66 binding to sNogoR344-Fc. The method, then:
0.5 μg of a soluble Nogo receptor-1 fusion protein comprising amino acid residues 26-344 of rat Nogo receptor-1 and the hinge and Fc region of the rat IgG1 molecule (sNogoR344-Fc) produced as described below was immobilized on […] of protein-A- or wheatgerm agglutinin-conjugated SPA beads (Amersham Pharmacia Biotech) for 2 hours at 25° C. SPA beads coupled with Fc-sNogoR-1, anti-Nogo receptor-1 mAb and 1 μl ^125I-Nogo66 (Amersham, 2000 Ci/mmol, 1 nM) in […] of the HEPES-buffered incubation medium (10 mM HEPES, pH 7.4, 0.1% bovine serum albumin, 0.1% ovalbumin, 2 mM MgCl2, 2 mM CaCl2 and protease inhibitors) was added to each sample well. After 16 hours, radioactivity was measured in quadruplicate samples using a TopCount® (Packard). IC50 values were calculated from a curve-fit analysis (FIG. 3) (PRISM, GraphPad Software, NJ). In some experiments, we also used AP-ligand conjugates (e.g. AP-Nogo66) and detected binding by monitoring alkaline phosphatase activity. We also assayed the ability of the mAbs to block binding of the ligands MAG-Fc and AP-OM-gp to Nogo receptor-1.

The test system of test [3] is DRG neurons, myelin-mediated inhibition of neurite outgrowth. Kind of test: Neurite outgrowth assay, P3-4 rat DRG neurons on CNS myelin (Example 5). Format: cell-based. The following applies: mAb added after plating. The protocol:
To test the ability of the monoclonal and Fab-phage antibodies produced above to lessen the inhibitory effect of CNS myelin on neurons, Lab-Tek® culture slides (4 wells) were coated with 0.1 mg/ml poly-D-lysine (Sigma®). CNS myelin or PBS was spotted as 3 μl drops. Fluorescent microspheres (Polysciences) were added to the myelin/PBS to allow later identification of the drops (Grandpre et al., Nature 403:439-444 (2000)). Lab-Tek® slides were then rinsed and coated with 10 μg/ml laminin (Gibco™). Dorsal root ganglions (DRG's) from P3-4 Sprague Dawley rat pups were dissociated with 1 mg/ml collagenase type 1 (Worthington), triturated with fire-polished Pasteur pipettes pre-plated to enrich in neuronal cells and finally plated at 23,000 cells/well on the pre-coated Lab-Tek® culture slides. The culture medium was F12 containing 5% heat inactivated donor horse serum, 5% heat inactivated fetal bovine serum and 50 ng/ml mNGF and incubated at 37° C. and 5% CO2 for 6 hours. Fifteen […] of mAb 7E11 was added immediately after plating.
Slides were fixed for 20 minutes with 4% paraformaldehyde containing 20% sucrose and stained for the neuronal marker anti beta-III-tubulin (Covance TUJ1) diluted 1:500. […] 5× digital images were acquired with OpenLab™ software and analysed by using the MetaMorph® software for quantification of neurite outgrowth.

The next test has as its target T4, human NgR1 (Homo sapiens, UniProt Q9BZR6).
T4 sequence (Q9BZR6 27-447): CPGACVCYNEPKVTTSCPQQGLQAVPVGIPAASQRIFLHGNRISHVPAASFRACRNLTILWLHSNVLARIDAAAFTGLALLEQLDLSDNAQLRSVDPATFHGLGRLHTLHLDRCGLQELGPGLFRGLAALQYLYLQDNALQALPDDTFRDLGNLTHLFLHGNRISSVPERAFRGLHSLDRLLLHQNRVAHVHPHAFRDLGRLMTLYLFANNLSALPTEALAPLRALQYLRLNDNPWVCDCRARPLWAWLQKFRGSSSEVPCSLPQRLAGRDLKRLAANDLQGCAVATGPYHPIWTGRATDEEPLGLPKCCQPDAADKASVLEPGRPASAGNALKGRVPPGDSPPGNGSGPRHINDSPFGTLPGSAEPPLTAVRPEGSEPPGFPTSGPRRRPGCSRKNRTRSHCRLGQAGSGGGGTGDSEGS
The experiment in a line: Antibody binding specificity: human Nogo receptor-1.

B1: 7E11: murine monoclonal anti-Nogo receptor-1 antibody, immunogen rat Nogo receptor-1 residues 110-125, IgG1 kappa, ATCC PTA-4587 (antibody, V domains shown)
VH: VQLQESGAELVMPGASVKMSCKASGYTFTDYWMHWVKQRPGQGLEWIGAIDPSDSYSSYNQNFKGKATLTVDGSSSTAYMQLSSLTSEDSAVYYCARRITEAGAWFAYWGQGTTVT
VL: MKLPVRLLVLMFWIPASSSDVVMTQTPLSLPVSLGDQASISCRSSQSLVHSNGNTYLHWYLQKPGQSPKLLIYKVSNRFSGVPDRFSGSGSGTDFTLKISRVDAEDLGVYFCSQSTHVPFTFGGGTKLEIKRADAAPTVSISHH
modifications: 7E11 heavy chain; 7E11 light chain
notes: murine monoclonal anti-Nogo receptor-1 antibody, immunogen rat Nogo receptor-1 residues 110-125, IgG1 kappa, ATCC PTA-4587
As a reminder, the IC50 is the concentration needed to halve the response being measured. A low value points to higher potency. Regarding B1, the “binding to polypeptide p-617 (SEQ ID NO: 1)” value in test [1] is “specifically bound”. Also, the “binding to human Nogo receptor-2” value in the test with human NgR2 is “not”. The same molecule registered an IC50 in test [2] of 400 nM. Besides, in test [3], the “protection of DRG neurons from myelin-mediated inhibition of neurite outgrowth” value is “protected”. In addition, the “binding to human Nogo receptor-1” value in the test with human NgR1 is listed as “bound; also recorded: binds well”.
